Experimental data: US20140271457A1 (AbbVie / Abbott, published 2014)

Target: Recombinant Human TNF-α/TNFSF1A (human, UniProt P01375 77-233)
Experiment: cell-based or functional assay

Recombinant Human TNF-α/TNFSF1A, sequence (P01375 77-233 limits assumed): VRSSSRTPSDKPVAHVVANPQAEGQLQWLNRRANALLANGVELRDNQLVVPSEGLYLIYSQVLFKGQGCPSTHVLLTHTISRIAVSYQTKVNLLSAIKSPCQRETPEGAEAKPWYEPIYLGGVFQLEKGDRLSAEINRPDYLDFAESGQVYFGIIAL

| Binder | C-Terminal VD huTNFα Neutralization Assay IC50 | N-Terminal VD huTNFα Neutralization Assay IC50 |
| --- | --- | --- |
| DVD3023 (bispecific antibody, IgG1) VH: EVQLVQSGAEVKKPGASVKVSCKASGYTFTKYWLGWVRQAPGQGLEWMGDIYPGYDYTHYNEKFKDRVTLTTDTSTSTAYMELRSLRSDDTAVYYCARSDGSSTYWGQGTLVTVSSGGGGSGGGGSEVQLVQSGAEVKKPGASVKVSCKASGYTFNNYGIIWVRQAPGQGLEWMGWINTYTGKPTYAQKFQGRVTMTTDTSTSTAYMELSSLRSEDTAVYYCARKLFNTVAVTDNAMDYWGQGTTVTVSS VL: DVLMTQTPLSLPVTPGEPASISCTSSQNIVHSNGNTYLEWYLQKPGQSPQLLIYKVSNRFSGVPDRFSGSGSGTDFTLKISRVEAEDVGVYYCFQVSHVPYTFGGGTKVEIKRGGSGGGGSGDIQMTQSPSSLSASVGDRVTITCRASQDIENYLNWYQQKPGKAPKLLIYYTSRLQSGVPSRFSGSGSGTDFTLTISSLQPEDFATYFCQQGNTQPPTFGQGTKLEIKR | 0.203 nM |  |
| DVD3024 (bispecific antibody, IgG1) VH: EVQLVQSGAEVKKPGASVKVSCKASGYTFTKYWLGWVRQAPGQGLEWMGDIYPGYDYTHYNEKFKDRVTLTTDTSTSTAYMELRSLRSDDTAVYYCARSDGSSTYWGQGTLVTVSSASTKGPEVQLVQSGAEVKKPGASVKVSCKASGYTFNNYGIIWVRQAPGQGLEWMGWINTYTGKPTYAQKFQGRVTMTTDTSTSTAYMELSSLRSEDTAVYYCARKLFNTVAVTDNAMDYWGQGTTVTVSS VL: DVLMTQTPLSLPVTPGEPASISCTSSQNIVHSNGNTYLEWYLQKPGQSPQLLIYKVSNRFSGVPDRFSGSGSGTDFTLKISRVEAEDVGVYYCFQVSHVPYTFGGGTKVEIKRTVAAPDIQMTQSPSSLSASVGDRVTITCRASQDIENYLNWYQQKPGKAPKLLIYYTSRLQSGVPSRFSGSGSGTDFTLTISSLQPEDFATYFCQQGNTQPPTFGQGTKLEIKR | 0.934 nM |  |
| DVD3026 (bispecific antibody, IgG1) VH: EVQLVQSGAEVKKPGASVKVSCKASGYTFTKYWLGWVRQAPGQGLEWMGDIYPGYDYTHYNEKFKDRVTLTTDTSTSTAYMELRSLRSDDTAVYYCARSDGSSTYWGQGTLVTVSSASTKGPEVQLVQSGAEVKKPGASVKVSCKASGYTFNNYGIIWVRQAPGQGLEWMGWINTYTGKPTYAQKFQGRVTMTTDTSTSTAYMELSSLRSEDTAVYYCARKLFNTVAVTDNAMDYWGQGTTVTVSS VL: DVLMTQTPLSLPVTPGEPASISCTSSQNIVHSNGNTYLEWYLQKPGQSPQLLIYKVSNRFSGVPDRFSGSGSGTDFTLKISRVEAEDVGVYYCFQVSHVPYTFGGGTKVEIKRTVAAPSVFIFPPDIQMTQSPSSLSASVGDRVTITCRASQDIENYLNWYQQKPGKAPKLLIYYTSRLQSGVPSRFSGSGSGTDFTLTISSLQPEDFATYFCQQGNTQPPTFGQGTKLEIKR | 0.038 nM |  |
| DVD3027 (bispecific antibody, IgG1) VH: EVQLVQSGAEVKKPGASVKVSCKASGYTFTKYWLGWVRQAPGQGLEWMGDIYPGYDYTHYNEKFKDRVTLTTDTSTSTAYMELRSLRSDDTAVYYCARSDGSSTYWGQGTLVTVSSASTKGPSVFPLAPEVQLVQSGAEVKKPGASVKVSCKASGYTFNNYGIIWVRQAPGQGLEWMGWINTYTGKPTYAQKFQGRVTMTTDTSTSTAYMELSSLRSEDTAVYYCARKLFNTVAVTDNAMDYWGQGTTVTVSS VL: DVLMTQTPLSLPVTPGEPASISCTSSQNIVHSNGNTYLEWYLQKPGQSPQLLIYKVSNRFSGVPDRFSGSGSGTDFTLKISRVEAEDVGVYYCFQVSHVPYTFGGGTKVEIKRTVAAPDIQMTQSPSSLSASVGDRVTITCRASQDIENYLNWYQQKPGKAPKLLIYYTSRLQSGVPSRFSGSGSGTDFTLTISSLQPEDFATYFCQQGNTQPPTFGQGTKLEIKR | 0.076 nM |  |
| DVD3203 (bispecific antibody, IgG1) VH: EVQLVESGGGLVQPGGSLRLSCAASGFTFSNYGVTWVRQAPGKGLEWVSMIWADGSTHYASSVKGRFTISRDNSKNTLYLQMNSLRAEDTAVYYCAREWQHGPVAYWGQGTLVTVSSGGGGSGGGGSEVQLVESGGGLVQPGGSLRLSCAASGFSFSKYWLGWVRQAPGKGLEWVSDIYPGYDYTHYNEKFKDRFTISADTSKNTAYLQMNSLRAEDTAVYYCARSDGSSTYWGQGTLVTVSS VL: DIQMTQSPSSLSASVGDRVTITCRASQLVSSAVAWYQQKPGKAPKLLIYWASARHTGVPSRFSGSGSGTDFTLTISSLQPEDFATYYCQQHYKTPFTFGQGTKLEIKRGGSGGGGSGDIQMTQSPSSLSASVGDRVTITCTSSQNIVHSNGNTYLEWYQQKPGKAPKLLIYKVSNRFSGVPSRFSGSGSGTDFTLTISSLQPEDFATYYCFQVSHVPYTFGQGTKVEIKR |  | 0.071 nM |
| DVD3204 (bispecific antibody, IgG1) VH: EVQLVESGGGLVQPGGSLRLSCAASGFTFSNYGVTWVRQAPGKGLEWVSMIWADGSTHYASSVKGRFTISRDNSKNTLYLQMNSLRAEDTAVYYCAREWQHGPVAYWGQGTLVTVSSASTKGPEVQLVESGGGLVQPGGSLRLSCAASGFSFSKYWLGWVRQAPGKGLEWVSDIYPGYDYTHYNEKFKDRFTISADTSKNTAYLQMNSLRAEDTAVYYCARSDGSSTYWGQGTLVTVSS VL: DIQMTQSPSSLSASVGDRVTITCRASQLVSSAVAWYQQKPGKAPKLLIYWASARHTGVPSRFSGSGSGTDFTLTISSLQPEDFATYYCQQHYKTPFTFGQGTKLEIKRTVAAPDIQMTQSPSSLSASVGDRVTITCTSSQNIVHSNGNTYLEWYQQKPGKAPKLLIYKVSNRFSGVPSRFSGSGSGTDFTLTISSLQPEDFATYYCFQVSHVPYTFGQGTKVEIKR |  | 0.001 nM |
| DVD3206 (bispecific antibody, IgG1) VH: EVQLVESGGGLVQPGGSLRLSCAASGFTFSNYGVTWVRQAPGKGLEWVSMIWADGSTHYASSVKGRFTISRDNSKNTLYLQMNSLRAEDTAVYYCAREWQHGPVAYWGQGTLVTVSSASTKGPEVQLVESGGGLVQPGGSLRLSCAASGFSFSKYWLGWVRQAPGKGLEWVSDIYPGYDYTHYNEKFKDRFTISADTSKNTAYLQMNSLRAEDTAVYYCARSDGSSTYWGQGTLVTVSS VL: DIQMTQSPSSLSASVGDRVTITCRASQLVSSAVAWYQQKPGKAPKLLIYWASARHTGVPSRFSGSGSGTDFTLTISSLQPEDFATYYCQQHYKTPFTFGQGTKLEIKRTVAAPSVFIFPPDIQMTQSPSSLSASVGDRVTITCTSSQNIVHSNGNTYLEWYQQKPGKAPKLLIYKVSNRFSGVPSRFSGSGSGTDFTLTISSLQPEDFATYYCFQVSHVPYTFGQGTKVEIKR |  | 0.001 nM |
| DVD3207 (bispecific antibody, IgG1) VH: EVQLVESGGGLVQPGGSLRLSCAASGFTFSNYGVTWVRQAPGKGLEWVSMIWADGSTHYASSVKGRFTISRDNSKNTLYLQMNSLRAEDTAVYYCAREWQHGPVAYWGQGTLVTVSSASTKGPSVFPLAPEVQLVESGGGLVQPGGSLRLSCAASGFSFSKYWLGWVRQAPGKGLEWVSDIYPGYDYTHYNEKFKDRFTISADTSKNTAYLQMNSLRAEDTAVYYCARSDGSSTYWGQGTLVTVSS VL: DIQMTQSPSSLSASVGDRVTITCRASQLVSSAVAWYQQKPGKAPKLLIYWASARHTGVPSRFSGSGSGTDFTLTISSLQPEDFATYYCQQHYKTPFTFGQGTKLEIKRTVAAPDIQMTQSPSSLSASVGDRVTITCTSSQNIVHSNGNTYLEWYQQKPGKAPKLLIYKVSNRFSGVPSRFSGSGSGTDFTLTISSLQPEDFATYYCFQVSHVPYTFGQGTKVEIKR |  | 0.005 nM |
| DVD3208 (bispecific antibody, IgG1) VH: EVQLVESGGGLVQPGGSLRLSCAASGFSFSKYWLGWVRQAPGKGLEWVSDIYPGYDYTHYNEKFKDRFTISADTSKNTAYLQMNSLRAEDTAVYYCARSDGSSTYWGQGTLVTVSSGGGGSGGGGSEVQLVESGGGLVQPGGSLRLSCAASGFTFSNYGVTWVRQAPGKGLEWVSMIWADGSTHYASSVKGRFTISRDNSKNTLYLQMNSLRAEDTAVYYCAREWQHGPVAYWGQGTLVTVSS VL: DIQMTQSPSSLSASVGDRVTITCTSSQNIVHSNGNTYLEWYQQKPGKAPKLLIYKVSNRFSGVPSRFSGSGSGTDFTLTISSLQPEDFATYYCFQVSHVPYTFGQGTKVEIKRGGSGGGGSGDIQMTQSPSSLSASVGDRVTITCRASQLVSSAVAWYQQKPGKAPKLLIYWASARHTGVPSRFSGSGSGTDFTLTISSLQPEDFATYYCQQHYKTPFTFGQGTKLEIKR | 0.172 nM |  |
| DVD3209 (bispecific antibody, IgG1) VH: EVQLVESGGGLVQPGGSLRLSCAASGFSFSKYWLGWVRQAPGKGLEWVSDIYPGYDYTHYNEKFKDRFTISADTSKNTAYLQMNSLRAEDTAVYYCARSDGSSTYWGQGTLVTVSSASTKGPEVQLVESGGGLVQPGGSLRLSCAASGFTFSNYGVTWVRQAPGKGLEWVSMIWADGSTHYASSVKGRFTISRDNSKNTLYLQMNSLRAEDTAVYYCAREWQHGPVAYWGQGTLVTVSS VL: DIQMTQSPSSLSASVGDRVTITCTSSQNIVHSNGNTYLEWYQQKPGKAPKLLIYKVSNRFSGVPSRFSGSGSGTDFTLTISSLQPEDFATYYCFQVSHVPYTFGQGTKVEIKRTVAAPDIQMTQSPSSLSASVGDRVTITCRASQLVSSAVAWYQQKPGKAPKLLIYWASARHTGVPSRFSGSGSGTDFTLTISSLQPEDFATYYCQQHYKTPFTFGQGTKLEIKR | 0.536 nM |  |
| DVD3211 (bispecific antibody, IgG1) VH: EVQLVESGGGLVQPGGSLRLSCAASGFSFSKYWLGWVRQAPGKGLEWVSDIYPGYDYTHYNEKFKDRFTISADTSKNTAYLQMNSLRAEDTAVYYCARSDGSSTYWGQGTLVTVSSASTKGPEVQLVESGGGLVQPGGSLRLSCAASGFTFSNYGVTWVRQAPGKGLEWVSMIWADGSTHYASSVKGRFTISRDNSKNTLYLQMNSLRAEDTAVYYCAREWQHGPVAYWGQGTLVTVSS VL: DIQMTQSPSSLSASVGDRVTITCTSSQNIVHSNGNTYLEWYQQKPGKAPKLLIYKVSNRFSGVPSRFSGSGSGTDFTLTISSLQPEDFATYYCFQVSHVPYTFGQGTKVEIKRTVAAPSVFIFPPDIQMTQSPSSLSASVGDRVTITCRASQLVSSAVAWYQQKPGKAPKLLIYWASARHTGVPSRFSGSGSGTDFTLTISSLQPEDFATYYCQQHYKTPFTFGQGTKLEIKR | 0.014 nM |  |
| DVD3212 (bispecific antibody, IgG1) VH: EVQLVESGGGLVQPGGSLRLSCAASGFSFSKYWLGWVRQAPGKGLEWVSDIYPGYDYTHYNEKFKDRFTISADTSKNTAYLQMNSLRAEDTAVYYCARSDGSSTYWGQGTLVTVSSASTKGPSVFPLAPEVQLVESGGGLVQPGGSLRLSCAASGFTFSNYGVTWVRQAPGKGLEWVSMIWADGSTHYASSVKGRFTISRDNSKNTLYLQMNSLRAEDTAVYYCAREWQHGPVAYWGQGTLVTVSS VL: DIQMTQSPSSLSASVGDRVTITCTSSQNIVHSNGNTYLEWYQQKPGKAPKLLIYKVSNRFSGVPSRFSGSGSGTDFTLTISSLQPEDFATYYCFQVSHVPYTFGQGTKVEIKRTVAAPDIQMTQSPSSLSASVGDRVTITCRASQLVSSAVAWYQQKPGKAPKLLIYWASARHTGVPSRFSGSGSGTDFTLTISSLQPEDFATYYCQQHYKTPFTFGQGTKLEIKR | 0.039 nM |  |
